Measurements published in paper PMC6479881, “Structural Comparison of Enterococcus faecalis and Human Thymidylate Synthase Complexes with the Substrate dUMP and Its Analogue FdUMP Provides Hints about Enzyme Conformational Variabilities” (Molecules, 2019).

B1: Enterococcus faecalis thymidylate synthase (enzyme)
chain: MEEAYLALGKKILEEGHFKEDRTGTGTYSLFGYQMRFDLAKGFPLLTTKRVPFGLIKSELLWFLKGDTNIRYLLERNNHIWDEWAFERYVKSADYQGPDMTDFGHRVLQDPAFAEQYKEEHQKFCDAILNDAEFAEKYGELGNIYGAQWRHWETKDGSFIDQLANVIEMIKTNPDSRRLIVSAWNPEDVPSMALPPCHTMFQFYVNEGKLSCQLYQRSADVFLGVPFNIASYALLTHLIAHETGLEVGEFVHTLGDAHLYQNHVEQMQEQLSREVRSFPTLVLNPDKASVFDFDMEDIKVEGYDPHPTIKAPIAV
modifications: dUMP complex: Cys197 as S,S-(2-hydroxylethyl)thiocysteine (CME197) in subunits B and D, oxidized to sulfenic acid (S-oxycysteine, CSX197) in subunits A and C; FdUMP complex: Cys197 thiol reactive
notes: Thymidylate synthase (EC 2.1.1.45) of Enterococcus faecalis; The homodimer is asymmetric: 5-FTHF copurifies in one active site of each dimer; also called EfTS; TS; source: prepared according to an established procedure [5]; purified
B2: human thymidylate synthase (enzyme)
chain: MPVAGSELPRRPLPPAAQERDAEPRPPHGELQYLGQIQHILRCGVRKDDRTGTGTLSVFGMQARYSLRDEFPLLTTKRVFWKGVLEELLWFIKGSTNAKELSSKGVKIWDANGSRDFLDSLGFSTREEGDLGPVYGFQWRHFGAEYRDMESDYSGQGVDQLQRVIDTIKTNPDDRRIIMCAWNPRDLPLMALPPCHALCQFYVVNSELSCQLYQRSGDMGLGVPFNIASYALLTYMIAHITGLKPGDFIHTLGDAHIYLNHIEPLKIQLQREPRPFPKLRILRKVEKIDDFKAEDFQIEGYNPHPTIKMEMAV
notes: Thymidylate synthase (EC 2.1.1.45), human, wild type; expressed from pQE-80L with a not-cleavable N-terminal His6-tag (twelve tag residues); the first twenty-five N-terminal residues and the tag were not traced in the structures; also called hTS; Human TS; source: E. coli BL21(DE3), purified (HisTrap HP); not shown: His6, N-terminal, kept

Legend:
[1] = molecular target: the molecule itself; assay: crystal structure; EfTS 7 mg/mL in 25 mM phosphate buffer pH 6.8, 2 mM DTT, with 100 mM dUMP or 4 mM FdUMP; precipitant 2.2-2.5 M ammonium sulfate, 0.1 M HEPES pH 7.5; room temperature; space group P21, two enzyme dimers in the ASU
[2] = molecular target: the molecule itself; assay: crystal structure; hTS 20 mg/mL in 50 mM HEPES pH 7.5, 30 mM NaCl, 20 mM beta-mercaptoethanol, with 40 mM dUMP or 2 mM FdUMP; precipitant 27-30 % PEG4000, 30 mM ammonium sulfate, 0.1 M TRIS pH 9; room temperature; space groups C2 or I2, one and half dimer in the ASU

| Protein | binding result [1] | binding result [2] |
| --- | --- | --- |
| B1 | binds | – |
| B2 | – | binds |
